Experimental data as given in patent US20040229301A1 (published 2004).
Where “and” joins values, the source holds several entries; their conditions need not be identical. Equal entries are not always repeated.

B1: monoclonal anti-TF antibody TF277 (hybridoma cell line TF277, ATCC PTA-5675) (antibody, IgG1, V domains shown)
VH: QVQLQQPGAELVKPGASVKLSCKTSGYTFTSYWMHWVKQRPGQGLEWIGEIDPSDSYTNYNQKFKGKATLTVDKSSSTAYMQLSSLTSEDSAVYYCTYYVNYYAMDYWGQGTSVTVSS
VL: QIVLTQSPAIMSASLGEEITLTCSASSSVSYMHWYQQKSGTSPKLLIYSTSNLASGVPSRFSGSGSGTFYSLTISSVEAEDAADYYCHQWSSYPYTFGGGTKLEIK
B2: monoclonal anti-TF antibody TF196 (hybridoma cell line TF196, ATCC PTA-5196) (antibody, V domains shown)
VH: QVQLKQSGPELEKPGASVKISCKASGYSFTGYNMNWVKQSNGKSLEWIGNIDPYYGGTSYNQKFKGKATLTVDKSSNTAYMHLKSLTSEDSAVYYCARDSSSWFAYWGQGTLVTVSA
VL: DIQLTQSPASLSASVGETVTITCRASGNIHNYLAWYQQKQGKSPQLLVYNAKTLADGVPSRFSGSGSGTQYSLKINSLQPEDFGSYYCQHFWITPWTFGGGTKLEI
notes: Mouse hybridoma IgG
B3: monoclonal anti-TF antibody TF278 (hybridoma cell line TF278, ATCC PTA-5676) (antibody, IgG1, V domains shown)
VH: EVQLQQSGAELMKPGASVKISCKATGYTFSSYWIEWVKQRPGHGLEWIGEILPGSASTKYNEKFKGKATFTADTSSNTAYMQLSSLTSEDSAVYYCARDYYYGSSYGFAYWGQGTLVTVSS
VL: QAVVTQESALTTSPGETVTLTCRSSTGAVTTSNYANWVQEKPDHLFTGLIGGTNNRGPGVPARFSGSLIGDKAALTITGAQTEDEAVYFCALWYSNHWVFGGGTKLTVLG
B4: monoclonal anti-TF antibody TF260 (hybridoma cell line TF260, ATCC PTA-5197) (antibody, V domains shown)
VH: QVQLKQSGAELMKPGASVKISCKATGYTFSSYWIEWVKQRPGHGLEWIGEILPGSGSTNYNEKFKGKATFTADTSSNTAYMQLSSLTSEDSAVYYCAREDRYDGDYWGQGTTLTVS
VL: QAVVTQESALTTSPGETVTLTCRSSTGAVTTSNYANWVQEKPDHLFTGLIGGTNNRAPGVPARFSGSLIGDKAALTITGAQTEDEAIYFCALWYSNHWVFGGGTKLTVLG
B5: monoclonal anti-TF antibody TF392 (hybridoma cell line TF392, ATCC PTA-5677) (antibody, IgG1, V domains shown)
VH: QVQLKESGAELMKPGASVKISCKATGYTFSSYWIEWVKQRPGHGLEWIGEILPGSGSTNYNEKFKGKATFTADTSSNTAYMQLSSLTSEDSAVYYCARDRNGYVNYFDSWGQGTTLTVSS
VL: QAVVTQESALTTSPGETVTLTCRSSTGAVTTSNYANWVQEKPDHLFTGLIGGTNNRAPGVPARFSGSLIGDKAALTITGAQTEDEAIYFCALWYSNHWVFGGGTKLTVLG
B6: monoclonal anti-TF antibody TF9 (hybridoma cell line TF9, ATCC PTA-5674) (antibody, V domains shown)
VH: DVKLQESGPDLVKPSQSLSLTCTVTGYSITSGYSWHWIRQFPGNKLEWMGYIHYSGSTKYNPSLKSRISITRDTSKNQFFLQLNSVTTEDTATYYCARLWSWYFDVWGAGTTVTVSS
VL: NIMMTQSPSSLAVSAGEKVTMSCKSSQSVLYSSNQKNYLAWYQQKPGQSPKLLIYWASTRESGVPDRFTGSGSGTDFTLTISSVQAEDLAVYYCHQYLSSYTFGGGTKLEIK

Columns and labels:
[1] = molecular target: full-length human tissue factor with C-terminal RGS-His6 tag, stably expressed on CHO-K1 cells (human, UniProt P13726 33-295); assay: cell-based or functional assay
[2] = molecular target: T1, human tissue factor, endogenous, on tumor cell lines (H596; TF-positive SW900) (human, UniProt P13726 33-295); assay: FACS on H596 cells
T1 construct: whole, on cells; also called hTF

[3] = molecular target: T2, soluble human tissue factor (extracellular domain of hTF with C-terminal RGS-His6 tag) (human, UniProt P13726 33-251); assay: BIAcore X, soluble hTF immobilized on CM5 chip, mAb injected
T2 construct: leader left out (range computed from the stated lengths); Expressed in HEK293, purified on Ni-agarose and by gel filtration; also called soluble hTF; recombinant soluble hTF
Method: Binding properties of anti-hTF mAbs were evaluated using BIAcore X. Briefly, a CM5 BIAcore biosensor chip was docked into the instrument and activated with 55 μl of 1:1 NHS/EDC at room temperature. The recombinant soluble hTF and BSA (10 μg/ml in 0.05 M acetate buffer, pH 4.5) were immobilized on the activated chips in flow cells 1 and 2, respectively. The immobilization was carried out at a flow rate of 5 μl/min until a resonance response of 1000-2000 RU was achieved. The chip was then blocked by injection of 55 μl of ethanolamine-HCl, pH 8.5 followed by 5 washes with 50 mM NaOH, 1 M NaCl. To measure the binding of anti-hTF mAbs to the soluble hTF immobilized to the chip, 30 μl of anti-hTF mAbs at varying concentrations in BIAcore running buffer (HBS-EP, Biacore AB, Uppsala, Sweden, Cat. #1001-08) were injected over the sensor surface at a flow rate of 5 μl/min. Following completion of the injection phase, dissociation was monitored in BIAcore running buffer at the same flow rate for 360 seconds. The surface was regenerated between injections using 30 μl of 50 mM NaOH-1 M NaCl. Individual sensorgrams were analyzed using BIAsimulation software.

Row | Binder | Coagulation (seconds), Ab 10 ug/ml [1] [s] | EC50 [2] | Kd [3] [nM] | koff [3] [s⁻¹] | kon [3] [M⁻¹ s⁻¹] | Bmax [2]
1 | B1 | 202 | 0.48 nM and 0.71 nM | 7.14 | 0.00312 |  | 
2 | B2 |  |  | 66.3 | 0.00279 | 42100 | 
3 | B3 | 190 | 0.48 nM and 1.14 nM | 0.789 | 0.000138 |  | 
4 | B4 |  |  | 19.3 | 0.000191 | 9910 | 
5 | B5 | 210 | 6.29 nM | 2.46 | 0.00013 |  | 58
6 | B6 | 195 |  | 1.84 | 0.000364 |  | 
